Data from the Human Domainome abundance scans (Beltran et al. 2025).
± gives the uncertainty stated by the source.

B1: Far upstream element-binding protein 1, residues 98 to 169; numbered along this chain, Q96AE4 (parent)
chain: RSVMTEEYKVPDGMVGFIIGRGGEQISRIQQESGCKIQIAPDSGGLPERSCMLTGTPESVQSAKRLLDQIVE
B2: Gamma-crystallin C, residues 91 to 170; numbered along this chain, P07315 (parent)
chain: RLYEREDHKGLMMELSEDCPSIQDRFHLSEIRSLHVLEGCWVLYELPNYRGRQYLLRPQEYRRCQDWGAMDAKAGSLRRV

Variants of: B1
Assay: abundance fitness (aPCA) (normalised: wild type 0, dead -1); higher = more abundant; growth selection in yeast, the domain comes from the species named
Details: Homo sapiens

Row | Variant | abundance fitness
1 | RSVMTEEYKVPDGMVGFIIGRGGEQISRIQQESGCKIQIAPDSGGLPERSCMLTGTPESVQSAKRLLDQIVV [E72V] | 0.051 ± 0.038
2 | RSVMTEEYKVPDGMVGFIIGRGGEQISRIQQESGCKIQIAPDSGGLPERSCMLTGTPESVQSAKRLLDQIVG [E72G] | 0.024 ± 0.029
3 | RSVMTEEYKVPDGMVGFIIGRGGEQISRIQQESGCKIQIAPDSGGLPERSCMLTGTPESVQSAKRLLDQIVW [E72W] | -0.008 ± 0.037
4 | RSVMTEEYKVPDGMVGFIIGRGGEQISRIQQESGCKIQIAPDSGGLPERSCMLTGTPESVQSAKRLLDQIVH [E72H] | -0.007 ± 0.053
5 | RSVMTEEYKVPDGMVGFIIGRGGEQISRIQQESGCKIQIAPDSGGLPERSCMLTGTPESVQSAKRLLDQIVK [E72K] | -0.129 ± 0.043
6 | RSVMTEEYKVPDGMVGFIIGRGGEQISRIQQESGCKIQIAPDSGGLPERSCMLTGTPESVQSAKRLLDQIVA [E72A] | 0.04 ± 0.034
7 | RSVMTEEYKVPDGMVGFIIGRGGEQISRIQQESGCKIQIAPDSGGLPERSCMLTGTPESVQSAKRLLDQIVT [E72T] | 0.05 ± 0.036
8 | RSVMTEEYKVPDGMVGFIIGRGGEQISRIQQESGCKIQIAPDSGGLPERSCMLTGTPESVQSAKRLLDQIVD [E72D] | -0.048 ± 0.042
9 | RSVMTEEYKVPDGMVGFIIGRGGEQISRIQQESGCKIQIAPDSGGLPERSCMLTGTPESVQSAKRLLDQIVM [E72M] | -0.01 ± 0.052
10 | RSVMTEEYKVPDGMVGFIIGRGGEQISRIQQESGCKIQIAPDSGGLPERSCMLTGTPESVQSAKRLLDQIVS [E72S] | 0.012 ± 0.035
11 | RSVMTEEYKVPDGMVGFIIGRGGEQISRIQQESGCKIQIAPDSGGLPERSCMLTGTPESVQSAKRLLDQIVN [E72N] | -0.11 ± 0.053
12 | RSVMTEEYKVPDGMVGFIIGRGGEQISRIQQESGCKIQIAPDSGGLPERSCMLTGTPESVQSAKRLLDQIVF [E72F] | -0.111 ± 0.064
13 | RSVMTEEYKVPDGMVGFIIGRGGEQISRIQQESGCKIQIAPDSGGLPERSCMLTGTPESVQSAKRLLDQIVY [E72Y] | -0.01 ± 0.065
14 | RSVMTEEYKVPDGMVGFIIGRGGEQISRIQQESGCKIQIAPDSGGLPERSCMLTGTPESVQSAKRLLDQIVP [E72P] | -0.065 ± 0.042
15 | RSVMTEEYKVPDGMVGFIIGRGGEQISRIQQESGCKIQIAPDSGGLPERSCMLTGTPESVQSAKRLLDQIVC [E72C] | -0.034 ± 0.046
16 | RSVMTEEYKVPDGMVGFIIGRGGEQISRIQQESGCKIQIAPDSGGLPERSCMLTGTPESVQSAKRLLDQIPE [V71P] | -0.047 ± 0.035
17 | RSVMTEEYKVPDGMVGFIIGRGGEQISRIQQESGCKIQIAPDSGGLPERSCMLTGTPESVQSAKRLLDQIME [V71M] | -0.088 ± 0.038

Row | Variant | abundance fitness
18 | RSVMTEEYKVPDGMVGFIIGRGGEQISRIQQESGCKIQIAPDSGGLPERSCMLTGTPESVQSAKRLLDQIFE [V71F] | -0.065 ± 0.041
19 | RSVMTEEYKVPDGMVGFIIGRGGEQISRIQQESGCKIQIAPDSGGLPERSCMLTGTPESVQSAKRLLDQICE [V71C] | -0.044 ± 0.037
20 | RSVMTEEYKVPDGMVGFIIGRGGEQISRIQQESGCKIQIAPDSGGLPERSCMLTGTPESVQSAKRLLDQIIE [V71I] | -0.077 ± 0.039
21 | RSVMTEEYKVPDGMVGFIIGRGGEQISRIQQESGCKIQIAPDSGGLPERSCMLTGTPESVQSAKRLLDQIDE [V71D] | -0.114 ± 0.038
22 | RSVMTEEYKVPDGMVGFIIGRGGEQISRIQQESGCKIQIAPDSGGLPERSCMLTGTPESVQSAKRLLDQIRE [V71R] | -0.046 ± 0.024
23 | RSVMTEEYKVPDGMVGFIIGRGGEQISRIQQESGCKIQIAPDSGGLPERSCMLTGTPESVQSAKRLLDQITE [V71T] | -0.083 ± 0.029
24 | RSVMTEEYKVPDGMVGFIIGRGGEQISRIQQESGCKIQIAPDSGGLPERSCMLTGTPESVQSAKRLLDQIEE [V71E] | -0.089 ± 0.031
25 | RSVMTEEYKVPDGMVGFIIGRGGEQISRIQQESGCKIQIAPDSGGLPERSCMLTGTPESVQSAKRLLDQIWE [V71W] | -0.094 ± 0.032
26 | RSVMTEEYKVPDGMVGFIIGRGGEQISRIQQESGCKIQIAPDSGGLPERSCMLTGTPESVQSAKRLLDQIAE [V71A] | -0.036 ± 0.029
27 | RSVMTEEYKVPDGMVGFIIGRGGEQISRIQQESGCKIQIAPDSGGLPERSCMLTGTPESVQSAKRLLDQIKE [V71K] | -0.031 ± 0.036
28 | RSVMTEEYKVPDGMVGFIIGRGGEQISRIQQESGCKIQIAPDSGGLPERSCMLTGTPESVQSAKRLLDQIQE [V71Q] | -0.008 ± 0.036
29 | RSVMTEEYKVPDGMVGFIIGRGGEQISRIQQESGCKIQIAPDSGGLPERSCMLTGTPESVQSAKRLLDQISE [V71S] | -0.074 ± 0.027
30 | RSVMTEEYKVPDGMVGFIIGRGGEQISRIQQESGCKIQIAPDSGGLPERSCMLTGTPESVQSAKRLLDQINE [V71N] | -0.087 ± 0.044
31 | RSVMTEEYKVPDGMVGFIIGRGGEQISRIQQESGCKIQIAPDSGGLPERSCMLTGTPESVQSAKRLLDQIHE [V71H] | -0.128 ± 0.043
32 | RSVMTEEYKVPDGMVGFIIGRGGEQISRIQQESGCKIQIAPDSGGLPERSCMLTGTPESVQSAKRLLDQIGE [V71G] | -0.061 ± 0.024
33 | RSVMTEEYKVPDGMVGFIIGRGGEQISRIQQESGCKIQIAPDSGGLPERSCMLTGTPESVQSAKRLLDQIYE [V71Y] | -0.183 ± 0.042
34 | RSVMTEEYKVPDGMVGFIIGRGGEQISRIQQESGCKIQIAPDSGGLPERSCMLTGTPESVQSAKRLLDQYVE [I70Y] | -0.003 ± 0.04

Variants of: B2
Assay: as above
Details: Homo sapiens

Row | Variant | abundance fitness
35 | R1W | -0.404 ± 0.27
36 | R1K | -0.072 ± 0.21
37 | R1T | -0.314 ± 0.17
38 | L43I | -0.251 ± 0.16
39 | R63F | -0.574 ± 0.18
40 | R52D | -0.338 ± 0.12
41 | E14I | -0.265 ± 0.17
42 | E14Y | -0.04 ± 0.17
43 | S21M | -0.914 ± 0.29
44 | S21E | -0.554 ± 0.12
45 | S21P | -0.602 ± 0.23
46 | S21A | -0.467 ± 0.094
47 | M13C | -0.118 ± 0.12
48 | M13N | -0.24 ± 0.1
49 | S16Q | -0.132 ± 0.11
50 | S16E | 0.118 ± 0.089
51 | S16G | -0.082 ± 0.066
52 | Q23E | 0 ± 0.069
53 | Q23F | -0.093 ± 0.23
54 | Q23N | -0.016 ± 0.14
55 | Q23V | -0.053 ± 0.045
56 | Q23C | -0.187 ± 0.09
57 | L2G | -0.922 ± 0.2
58 | L2W | -0.847 ± 0.22
59 | D24M | -0.194 ± 0.11

Row | Variant | abundance fitness
60 | I31K | -1.02 ± 0.49
61 | I31P | -0.951 ± 0.32
62 | R50V | -0.085 ± 0.1
63 | D7K | -0.578 ± 0.15
64 | D7S | -0.277 ± 0.064
65 | G39Q | -0.853 ± 0.33
66 | M12P | -0.038 ± 0.1
67 | M12R | -0.32 ± 0.062
68 | M12V | -0.096 ± 0.052
69 | L55S | -0.08 ± 0.05
70 | L55C | -0.241 ± 0.15
71 | L55Y | 0.161 ± 0.18
72 | P20L | -0.613 ± 0.091
73 | P20I | -0.506 ± 0.23
74 | P20N | -0.152 ± 0.22
75 | C64P | 0.014 ± 0.085
76 | C64R | -0.653 ± 0.073
77 | C40R | -0.138 ± 0.072
78 | C40A | -0.025 ± 0.065
79 | C40K | -0.202 ± 0.16
80 | C40P | -0.446 ± 0.11
81 | C40V | 0.002 ± 0.06
82 | C40S | 0.041 ± 0.03
83 | W67C | -0.703 ± 0.25
84 | W67R | -0.744 ± 0.1

Row | Variant | abundance fitness
85 | S29K | -0.013 ± 0.13
86 | S29R | -0.043 ± 0.04
87 | S29Y | -0.132 ± 0.085
88 | S29L | -0.165 ± 0.057
89 | S29H | -0.064 ± 0.23
90 | G75T | -0.949 ± 0.43
91 | G75L | -0.826 ± 0.27
92 | R5S | -0.144 ± 0.14
93 | E45I | -0.762 ± 0.21
94 | E45P | -0.832 ± 0.16
95 | E45A | -0.191 ± 0.071
96 | E45D | -0.265 ± 0.33
97 | Y54G | -0.968 ± 0.32
98 | Y54P | -1 ± 0.2
99 | Y54L | -0.727 ± 0.15
100 | Y54A | -0.891 ± 0.23
101 | C19F | -0.969 ± 0.41
102 | C19M | -0.761 ± 0.19
103 | C19P | -0.902 ± 0.24
104 | C19W | -0.807 ± 0.14
105 | Q53F | -0.425 ± 0.29
106 | Q53L | -0.78 ± 0.12
107 | A74C | -0.177 ± 0.21
108 | A74Q | -0.797 ± 0.21
